Assay results from patent US20200002405A1 (ADMINISTRATORS OF THE TULANE EDUCATIONAL FUND, published 2020).
Read-outs that look alike come from different tables or passages of the source.

Experiments:
[1] = molecular target: T1, LCMV WE strain GP (LCMV, WE strain, UniProt P07399 2-498); assay: immunofluorescence, 293T cells transfected with GP plasmid
T1 construct: whole, on cells
T1 sequence: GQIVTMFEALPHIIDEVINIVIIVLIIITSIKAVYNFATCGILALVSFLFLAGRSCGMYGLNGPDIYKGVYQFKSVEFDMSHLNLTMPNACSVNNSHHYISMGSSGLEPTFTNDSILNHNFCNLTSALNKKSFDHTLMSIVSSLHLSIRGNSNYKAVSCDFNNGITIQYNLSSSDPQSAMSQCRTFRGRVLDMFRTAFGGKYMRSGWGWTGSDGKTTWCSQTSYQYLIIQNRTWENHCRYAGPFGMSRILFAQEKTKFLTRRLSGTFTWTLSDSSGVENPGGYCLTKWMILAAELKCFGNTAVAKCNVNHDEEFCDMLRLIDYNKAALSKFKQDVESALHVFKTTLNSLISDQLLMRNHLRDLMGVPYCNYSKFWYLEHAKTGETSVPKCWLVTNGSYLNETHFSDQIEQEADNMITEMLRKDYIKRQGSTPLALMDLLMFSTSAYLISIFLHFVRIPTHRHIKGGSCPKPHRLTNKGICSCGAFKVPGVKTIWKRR

[2] = molecular target: T2, LASV Josiah (lineage IV) glycoprotein, full-length GP (Lassa virus, Josiah strain, UniProt P08669 2-491); assay: cell-based or functional assay
T2 sequence: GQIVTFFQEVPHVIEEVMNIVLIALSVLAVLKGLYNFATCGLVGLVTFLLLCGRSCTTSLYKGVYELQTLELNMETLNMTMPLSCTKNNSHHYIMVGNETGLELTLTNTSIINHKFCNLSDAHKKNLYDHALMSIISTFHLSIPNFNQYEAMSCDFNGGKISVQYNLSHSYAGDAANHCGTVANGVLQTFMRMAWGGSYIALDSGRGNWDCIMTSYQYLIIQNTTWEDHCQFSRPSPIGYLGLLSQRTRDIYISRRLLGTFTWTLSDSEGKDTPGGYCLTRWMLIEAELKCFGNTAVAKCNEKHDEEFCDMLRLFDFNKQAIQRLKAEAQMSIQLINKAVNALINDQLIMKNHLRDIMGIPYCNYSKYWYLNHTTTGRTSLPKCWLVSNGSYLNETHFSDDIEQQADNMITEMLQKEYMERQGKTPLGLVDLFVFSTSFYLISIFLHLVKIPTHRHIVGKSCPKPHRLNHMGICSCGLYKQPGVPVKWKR

[3] = molecular target: T2, LASV Josiah (lineage IV) glycoprotein, …; assay: cell-based or functional assay; remark: listed apart in the source
[4] = molecular target: LASV A19 (lineage II) glycoprotein (Lassa virus, strain A19); assay: cell-based or functional assay
[5] = molecular target: LASV 237 (lineage III) glycoprotein (Lassa virus, strain 237); assay: cell-based or functional assay
[6] = molecular target: LASV Pinneo (lineage I) glycoprotein (Lassa virus, strain Pinneo); assay: cell-based or functional assay

Binder	binding result [1]	IC50 (neutralization) [2] [µg/mL]	IC80 (neutralization) [2] [µg/mL]	IC50 (neutralization) [3] [µg/mL]	IC80 (neutralization) [3] [µg/mL]	IC50 (neutralization) [4] [µg/mL]	IC80 (neutralization) [4] [µg/mL]	IC50 (neutralization) [5] [µg/mL]	IC80 (neutralization) [5] [µg/mL]	IC50 (neutralization) [6] [µg/mL]	IC80 (neutralization) [6] [µg/mL]
25.10C (antibody, V domains shown) VH: QVQLQESGGGLVKPGGSLRLSCTASGFNFNKYNMNWVRQAPGKGLEWVSSISALSTYIYYADSLKGRFTVSRDNAKNSLFLQMNSLRDDDTAVYYCAREIRRASTWSADLWGRGTLVTVSS VL: DIQMTQSPSSLSASVGDRVIITCRASQSISSSLNWYQQKPGKAPKLLIYAAVNLETGVPSRFSGSGFGTDFTLAISNVQPEDFATYYCQQSDTRTFGRGTKLDVKR	no binding	–	–	–	–	–	–	–	–	–	–
18.5C (antibody) VH: DEVQLVESGGGLVRPGGSLRLSCAAAGFTFKSYSMNWVRQAPGRGLEWVSSITSGGSKTYYADVVKGRFTVSRDNAKQSLYLQMNSLRAEDTAIYFCARSLHSTSQPSYMDVWGRKITVIVSSASTKGPSVFPLAPSSKSTSGGTAALGCLVKDYFPEPVTVSWNSGALTSGVHTFPAVLQSSGLYSLSSVVTVPSSSLGTQTYICNVNHKPSNTKVDKRVEPKSCDKTHTCPPCPAPELLGGPSVFLFPPKPKDTLMISRTPEVTC VL: DDIQMTQSPGTLSLSPGERATLSCRASQSVISYYVAWYQHKGGQAPRLLIYGASSRATGVPDRFSGSGSGTDFTLTISSLEPEDFALYYCQYYGSSPLWAFGQGTKVEIKRTVAAPSVFIFPPSDEQLKSGTASVVCLLNNFYPREAKVQWKVDNALQSGNSQESVTEQDSKDSTYSLSSTLTLSKADYEKHKVYACEVTHQGLSSPVTKSFNRGEC	–	> 10	> 10	1.94	3.98	1.2	4.63	0.621	3.23	6.11	12.2
10.4B (antibody) VH: DQVQLVQSGGGVVQPGRSLRVSCVTSGFNFRAYGMHWVRQIPGKGLEWVADIWSAETNRHYADSVKGRFTISRDNSKSTLYLQMNSLRAEDTGVYFCAKARPGYDYVVDLWGQGTLVIVSSASTKGPSVFPLAPCSRSTSGGTAALGCLVKDYFPEPVTVSWNSGALTSGVHTFPAVLQSSGL VL: DEIVLTQSPSSLSASVGDRVTITCRASRDINTYLGWFQQRPGKAPKSLIYGASNLQNGVPSRFSGSGSGTYFTLTINGLQTEDFATYYCQQYSIYPLSLGGGTKADMKRTVAAPSVFIFPPSDEQLKSGTASVVCLLNNFYPREAKVQWKVDNALQSGNSQESVTEQDSKDSTYSLSSTLTLSKADYEKHKVYACEVTHQGLSSP	no binding	> 10	> 10	> 20	> 20	> 20	> 20	> 20	> 20	> 20	> 20
36.9F (antibody, V domains shown) VH: EVQLVQSGGGLVKAGGSLKLSCGASGFTFSSYSMSWVRQAPGKGLEWVSYISSGGSSIHYADSVKGRFTISRDNAKNSLYLQMKNLRVDDTGRYYCVRDPRSGISGRYGMDVWGQGTTVTVSS VL: DIVMTQSPDSLAVSLGERATINCKSSQTVLFTSYYVAWYQQKPGQPPKLLFSGASSRESGVPDRFSAGGSGTDFYLTINSLQAEDVADYYCQQYHTPPFTFGGGTKLEIRR	–	0.57	2.23	18	> 20	13	> 20	4.69	19.4	6.98	> 20
25.6A (antibody, V domains shown) VH: QVQLQESGGGLVKAGGSLRLSCAASGFMFERYSLHWVRQTPGKGLEWVSSISSLSGSHINYADSVKGRFTISRDNAKNSLSLQMNSLRVEDTAIYYCARDRRSGSSPVPLDVWGQGTTVTVSS VL: DLPVLTQPASVSGSPGQSITISCTGTSSDVGAYNYVSWYQQHPGKAPKLIIYEVKIRPSGVSNRFSGSKSGNTASLTISGLQAEDEADYFCSSYSTNSPWVFGGGTKVTVLR	–	0.188	0.3	0.743	2	0.483	3.51	0.169	0.603	1.83	3.11
NE13 (antibody, V domains shown) VH: EVQLVESGGGLVKPGGSLRLSCVASGFTFSSYSMNWVRQAPGKGLEWVSSISSGSSYIEYADSVKGRLTISRDNAKKSLYLQLNSLRAEDTAVYYCARHTARIDSYHGMDVWGQGTTVTVSS VL: ETTLTQSPGTLSLSPGERATLSCRASQSVSSTYLAWYQQKPGQSPRLLIYGASSRATGIPDRFSGSGSGTQFTLTINRLEPEDFAVYYCQQFGSPWTFGQGTKVEIKR	no binding	–	–	–	–	–	–	–	–	–	–
19.7E (antibody, V domains shown) VH: EVQLVESGGGLVRPGGSLRLSCAASGFSFSSYSMHWVRHVPGKGLVWVSYINSDGSTKIYADSVKGRFSISRDNAKNKLYLQMDSLRVEDTAVYSCVRLVHYDWSPFVWGQGTLVTVSS VL: EIVLTQSPSTLSASVGDRVTITCRASQSINNWLAWYQEKPGKAPKLLINKASSLESGVPSRFSGSGSGTEFTLTITSLQPDDFATYYCQQYNSNSWTFGQGTKVDMKR	no binding	–	–	–	–	–	–	–	–	–	–
9.8A (antibody, V domains shown) VH: EVQLVQSGGRLVQPGGSLRLSCVASGFTFSSHAMSWVRQAPGKGLEWVSGFSGSSGTTKYADSVKGRFTISRDNSKKTLYLQMNSLRAEDTAVYYCAKGFSPFRGVQFPYFDYWGQGTLVTVSS VL: DIVMTQSPSTLSASVGDRVTITCRASQSIDRWLAWYQQKPGKAPKLLIYQASSLERGVPSRFSGSGSGTEFTLTISSLQPDDFATYYCQQYNGYPLTFGGGTKVEIKR	–	0.139	0.253	1.31	2.42	0.15	0.527	0.193	0.494	1	2.59
